Consider two substances from article PMC3092982.

The target of one test is C3d C3d (Homo sapiens) (UniProt P01024). The note with it: cited from earlier work.
For test [1], the target named is Complement factor H (Homo sapiens) (UniProt P08603). The note with it: cited from earlier work.
The target in test [2] is FH fragment SCR-16/20 (human). The test is described as follows: AUC; sedimentation velocity, SCR-16/20 at 0.1 mg/ml, Hepes buffer, 20 °C, c(s) analysis; monomer and dimer peaks across the ZnSO4 titration 0-600 μM.

Complement factor H, sequence (P08603 19-1231): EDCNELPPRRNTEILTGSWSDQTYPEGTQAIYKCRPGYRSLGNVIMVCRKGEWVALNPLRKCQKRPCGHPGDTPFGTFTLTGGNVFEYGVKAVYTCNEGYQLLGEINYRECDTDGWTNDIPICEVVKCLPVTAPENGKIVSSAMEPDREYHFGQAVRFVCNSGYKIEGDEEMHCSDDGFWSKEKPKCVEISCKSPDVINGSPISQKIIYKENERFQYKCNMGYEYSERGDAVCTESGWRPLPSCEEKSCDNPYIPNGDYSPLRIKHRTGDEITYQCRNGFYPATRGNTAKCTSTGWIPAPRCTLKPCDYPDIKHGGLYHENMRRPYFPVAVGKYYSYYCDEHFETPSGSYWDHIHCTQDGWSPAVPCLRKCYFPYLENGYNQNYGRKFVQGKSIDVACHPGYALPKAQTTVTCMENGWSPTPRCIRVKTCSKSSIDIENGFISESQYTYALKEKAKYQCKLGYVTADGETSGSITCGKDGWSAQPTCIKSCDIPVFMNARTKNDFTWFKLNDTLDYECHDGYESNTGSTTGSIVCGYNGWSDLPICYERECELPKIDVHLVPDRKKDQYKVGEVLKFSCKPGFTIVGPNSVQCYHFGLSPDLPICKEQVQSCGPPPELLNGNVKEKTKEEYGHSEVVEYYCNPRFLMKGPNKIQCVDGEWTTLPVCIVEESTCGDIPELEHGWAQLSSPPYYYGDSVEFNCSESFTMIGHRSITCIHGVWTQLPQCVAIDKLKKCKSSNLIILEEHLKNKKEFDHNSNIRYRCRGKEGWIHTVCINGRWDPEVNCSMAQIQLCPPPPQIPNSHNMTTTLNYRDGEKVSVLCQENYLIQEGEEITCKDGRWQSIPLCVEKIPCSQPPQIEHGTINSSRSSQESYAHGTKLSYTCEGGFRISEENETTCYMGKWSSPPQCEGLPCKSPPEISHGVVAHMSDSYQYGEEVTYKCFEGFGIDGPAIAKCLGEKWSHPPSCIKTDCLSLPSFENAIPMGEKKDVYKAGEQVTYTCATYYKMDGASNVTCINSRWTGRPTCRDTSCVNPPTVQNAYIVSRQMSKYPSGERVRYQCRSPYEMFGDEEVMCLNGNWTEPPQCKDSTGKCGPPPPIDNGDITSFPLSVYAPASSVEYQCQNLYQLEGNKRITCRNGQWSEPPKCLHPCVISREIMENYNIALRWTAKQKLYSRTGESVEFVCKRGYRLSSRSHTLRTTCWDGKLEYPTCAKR
C3d C3d (Homo sapiens), sequence (P01024 1002-1303): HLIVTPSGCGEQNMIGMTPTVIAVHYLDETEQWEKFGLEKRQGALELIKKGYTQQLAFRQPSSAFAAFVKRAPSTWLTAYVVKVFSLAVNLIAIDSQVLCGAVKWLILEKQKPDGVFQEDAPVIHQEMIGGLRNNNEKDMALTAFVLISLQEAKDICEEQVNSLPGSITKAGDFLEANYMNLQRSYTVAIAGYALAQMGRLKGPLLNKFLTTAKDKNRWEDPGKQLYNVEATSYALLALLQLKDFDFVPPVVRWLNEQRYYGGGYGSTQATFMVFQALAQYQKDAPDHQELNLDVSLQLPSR
FH fragment SCR-16/20 (domain or fragment), sequence (P08603 19-1231): as the sequence (P08603 19-1231) above

What is called Kd is the constant that tells how readily two partners part at equilibrium. For the substance “Complement factor H (from UniProt P08603)”, the Kd was 2.6 µM with C3d C3d (Homo sapiens) and 28 µM in test [1].

Broadly, the stoichiometry N is the number of molecules, sites or subunits per partner or assembly. For “FH fragment SCR-16/20 (domain or fragment)”, in test [2], the stoichiometry N is 2.
